# The nanobody polyreactivity screen of Harvey et al. (2022)
# Test: yeast display, Sf9 membrane polyspecificity reagent, FACS + sequencing; frameworks hold sequencing errors
# Procedure, shortened: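 In a synthetic yeast display library (Saccharomyces cerevisiae BJ5465), nanobody expression was induced with galactose for 36–48 hours. FACS gates were set low and high (top ~1%) using anti-HA fluorescence for expression and streptavidin fluorescence for binding of the Sf9 membrane reagent. Each polyreactivity label is drawn from the gate of origin.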
row,Sequence,polyreactivity (PSR sort gate)
1,QVQLVESGGGLVQAGGSLRLSCAASGFIFFLNAMGWYRQAPGKERELVAAISSSGGRTYYADSVKGRFTISRDNAKNTVYLQMNSLKPEDTAVYYCNAVTLYRSRTDGYWGQGTQVTVSS,high polyreactivity
2,QVQLVESGGGLVQAGGSLRLSCAASGFIFFQNAMGWYRQAQGKERELVAAISRRGGSTYYADSVKGRFTISRDNAKNTVYLQMNSLKPEDTAVYYCAARSRGDLASLYTGDYWGQGTQVTVSS,low polyreactivity
3,QVQLVESGGGLVQAGGSLRLSCAASGFIFFRYDMAWYRQAPGKERELVAVITSSGSTNYADSVKGRFTISRDNAKNTVYLQMNSLKPEDTAVYYCNARGYWTWYRGYRMDYWGQGTQVTVSS,high polyreactivity
4,QVQLVESGGGLVQAGGSLRLSCAASGFIFFSYAMGWYRQAPGKEREFVASISGRTGSTYYADSVKGRFTISRDNAKNTVYLQMNSLKPEDTAVYYCNARIVHSFRYDYWGQGTQVNVSS,low polyreactivity
5,QVQLVESGGGLVQAGGSLRLSCAASGFIFFVNAMGWSRQAPGKEREFVATITGSGGSTYYADSVKGRFTISRDNAKNTVYLQMNSLKPEDTAVYYCAADSLTPKSASDYWGQGTQVTVSS,low polyreactivity
6,QVQLVESGGGLVQAGGSLRLSCAASGFIFFVNAMGWYRQAPGKEREFVATITGSGGSKYYADSVKGRFTISRDIAKNTVYLQMISLKPEDTAVYYCNAETYIVLRGKFPVEYDYWGQGTQVTVSS,low polyreactivity
7,QVQLVESGGGLVQAGGSLRLSCAASGFIFFYYAMGWYRQAPGKERELVAAITKNGGRTYYADSVKGRFTISRDNAKNTVYLQMNSLKPEDTAVYYCNKVKGQGGYYGYDYWGQGTQVTVSS,high polyreactivity
8,QVQLVESGGGLVQAGGSLRLSCAASGFIFGDYAMGWYRQAPGKERELVAAINRGASTYYADSVKGSFTISRDNPKNTVYLQMNSLTPEDTAVYYCAAAGNSRGGRGGYWGQGTQVSVSS,high polyreactivity
9,QVQLVESGGGLVQAGGSLRLSCAASGFIFGDYAMGWYRQAPGKERELVAAISRSGGRTYYADSVKGRFTISRDNAKNTVYLQMNSLKPEDTAVYDCAKSCLNIYDYWGQVTQVTVSS,high polyreactivity
10,QVQLVESGGGLVQAGGSLRLSCAASGFIFGDYAMGWYRQAPGKERELVAAITWSGGRTYYADSVKGRFTISRDNAKNTVYLQMNSLKPEDTAVYYCSAVWYTSRQKYDYWGQGTQVTVSS,low polyreactivity
11,QVQLVESGGGLVQAGGSLRLSCAASGFIFGFNAMGWYRQAPGKERELVAVFNRSGSRTYYADSVKGRFTISRDNAKNTVYLQMNSLKPEDTAVYYCNAYPRYQYWGQGTLVTVSS,high polyreactivity
12,QVQLVESGGGLVQAGGSLRLSCAASGFIFGGNAMGWYRPAPGKERELVAAISRRGGNTYYADSVKGRFTISRDNAKITVYLQMNSLKPEDTAVYYCATGTSYWYLWAYDYWGQGTQVTVSS,high polyreactivity
13,QVQLVESGGGLVQAGGSLRLSCAASGFIFGGNVMGWYRQAPGKEREFVAAITDGDGSTYYADSVKGRFTISRDNAKNTVYLQMNSLKPEDTAVYYCAADVYYADVYPVEYWGQGTQVTVSS,high polyreactivity
14,QVQLVESGGGLVQAGGSLRLSCAASGFIFGGYAMGWSRQAPGKERELVADISSSGGSTYYADSVKGRFTLSRDNAKNTVYLQMNSLKPEDTAVYDCAKVGWSRRYYYWGQGTQVTVSS,high polyreactivity
15,QVQLVESGGGLVQAGGSLRLSCAASGFIFGGYAMGWYRPAPGKERELVAAISSSGGSTYYADSVKGRFTISRDNAKNTVYLQMNSLKPEDTAVYYCAARIQSVSSGRWFDYWGQGTQVTVSS,high polyreactivity
16,QVQLVESGGGLVQAGGSLRLSCAASGFIFGGYAMGWYRQAPGKERALVAAITRSGGSTYYADSVKGRFTISRDNAKNTVYLQMNSLKPEDTAVYYCAAERQPYRTSSYNYWGQGTQVTVSS,high polyreactivity
17,QVQLVESGGGLVQAGGSLRLSCAASGFIFGINAMGWYRQAPGKDRELVATITSGGGTNYADSVKGRFTISRDNAKNTVYLQMNSLKPEETAVYYCAAEEDYISFYVSMDYWGQGTQVTVSS,low polyreactivity
18,QVQLVESGGGLVQAGGSLRLSCAASGFIFGINAMGWYRQEPGKERELFAAISKRTGSTYYADSVKGRFTISRDNAKNTVYLQMNSLKPEDTAFYYCNVVRYNGLDKYEYWGQGTQVTVSS,high polyreactivity
19,QVQLVESGGGLVQAGGSLRLSCAASGFIFGIYAMGWYRQAPGKERELVARISRSGVSTYYADSVKGRFTISRDNAKNTVYLQMNSLKPEDTAVYYCNAYRGGLSSEHYYWGQGTQVTVSS,high polyreactivity
20,QVQLVESGGGLVQAGGSLRLSCAASGFIFGKYAMGWYRQAPGKERELVAAITSDGRTYYADSVKGRFTISRDNAKNTVYLEMNSLKPEDTAVYYCAVDYYWYWYSGYDDYWGQGTQVTVSS,high polyreactivity
21,QVQLVESGGGLVQAGGSLRLSCAASGFIFGLNAMGWYRPAPGKERELVAAISYNGGSTYYADSVKGRFTISRDNAKNTVYLQMNSLKPEDTAVDYCNAYLYRKVGYRAYDYWGHGTQVTVSS,low polyreactivity
